*1 amine or outer side, *2 acyl side, *3 side chain or, on linkers, in order; H or OH if unused. Bridges are numbered along the chain shown (N, C = ends). Where no end group is shown, it is not given here. TATA = O=C(CC[*:1])N1CN(C(=O)CC[*:2])CN(C(=O)CC[*:3])C1
Key:
[1] = target: T1, Human EphA2 (Ecto), C-terminal polyHis (Human, UniProt P29317 24-537); test: FP competition vs Reference Compound C
T1 construct: extracellular domain; R&D systems 3035-A2 or in-house

Mouse EphA2 (Ecto) [2] = target: T2, Mouse EphA2 (Ecto) (Mouse, UniProt Q03145 26-538); test: FP competition vs Reference Compound C
T2 construct: extracellular domain; Fluorescence polarisation assays; not shown: Fc fusion (R&D Systems 639-A2) or C-terminal polyHis (Sino Biological 50586-M08H)
T2 sequence (Q03145 26-538): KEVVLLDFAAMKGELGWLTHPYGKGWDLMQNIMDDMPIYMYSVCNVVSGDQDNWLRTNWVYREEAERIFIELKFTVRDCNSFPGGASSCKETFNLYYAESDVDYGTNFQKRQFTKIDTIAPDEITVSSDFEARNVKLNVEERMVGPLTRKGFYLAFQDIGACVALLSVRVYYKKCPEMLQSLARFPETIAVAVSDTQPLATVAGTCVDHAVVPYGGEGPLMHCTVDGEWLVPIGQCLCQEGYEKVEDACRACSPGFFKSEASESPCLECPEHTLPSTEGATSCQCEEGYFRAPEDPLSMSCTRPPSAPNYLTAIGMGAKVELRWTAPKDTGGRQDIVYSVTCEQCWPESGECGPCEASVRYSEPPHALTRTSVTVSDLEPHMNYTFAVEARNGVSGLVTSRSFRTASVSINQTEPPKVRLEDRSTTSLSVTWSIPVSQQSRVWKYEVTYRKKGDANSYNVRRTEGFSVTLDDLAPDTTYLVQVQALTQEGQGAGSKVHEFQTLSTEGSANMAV

[3] = target: T1, Human EphA2 (Ecto), C-terminal polyHis; test: FP competition vs Reference Compound C (Study 2)
Mouse EphA2 (Ecto) [4] = target: T2, Mouse EphA2 (Ecto); test: FP competition vs Reference Compound C (Study 2)
[5] = target: T3, Rat EphA2 (ligand binding), C-terminal polyHis (Rat); test: FP competition vs Reference Compound C (Study 2)
T3 construct: In-house

[6] = target: T1, Human EphA2 (Ecto), C-terminal polyHis; test: FP competition vs Reference Compound A
[7] = target: T1, Human EphA2 (Ecto), C-terminal polyHis; test: FP competition vs Reference Compound B
[8] = target: T1, Human EphA2 (Ecto), C-terminal polyHis; test: FP competition vs Reference Compound C; remark: listed apart in the source
[9] = target: T1, Human EphA2 (Ecto), C-terminal polyHis; test: FP competition vs Reference Compound C (Study 2); remark: listed apart in the source

T1 sequence (P29317 24-537): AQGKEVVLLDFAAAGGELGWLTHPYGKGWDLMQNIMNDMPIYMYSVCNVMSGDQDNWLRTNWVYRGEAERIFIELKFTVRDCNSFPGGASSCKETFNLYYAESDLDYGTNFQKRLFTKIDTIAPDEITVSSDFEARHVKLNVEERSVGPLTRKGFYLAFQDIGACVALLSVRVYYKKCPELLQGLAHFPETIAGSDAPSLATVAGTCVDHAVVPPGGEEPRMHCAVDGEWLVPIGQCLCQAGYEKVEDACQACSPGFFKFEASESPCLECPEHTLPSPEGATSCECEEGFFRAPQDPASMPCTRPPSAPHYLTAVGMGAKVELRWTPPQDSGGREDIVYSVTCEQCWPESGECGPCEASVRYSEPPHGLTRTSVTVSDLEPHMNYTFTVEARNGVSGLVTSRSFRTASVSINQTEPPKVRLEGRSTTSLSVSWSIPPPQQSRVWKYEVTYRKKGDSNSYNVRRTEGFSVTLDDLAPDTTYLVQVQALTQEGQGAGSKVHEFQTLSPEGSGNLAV

B1: BCY6031 (peptide)
peptide: AXDCPLVNPLCLHPGWTC
modifications: not fully specified; as BCY6014 (N-terminal (β-Ala)-Sar10; HArg; TATA scaffold on the 3 Cys) + DM1-SS-
notes: Bicycle drug conjugate (BDC)
Ki [1]: 12.6 nM
Ki (Mouse EphA2 (Ecto) [2]): 34.7 nM
Ki [3]: 12.5 nM
Ki (Mouse EphA2 (Ecto) [4]): 35.1 nM
Ki [5]: 20 nM

ACYVGKECAYMNVCA (linker 2-8-14 via TATA; not fully specified (C-terminus)) [Compound 29]
Ki [6]: 87.7 nM
Ki [7]: 107 nM
Ki [8]: 210 nM

ACQPSNHCAFMNYCA (linker 2-8-14 via TATA) [Compound 30]
Ki [6]: 137 nM
Ki [7]: 187 nM

ACTSCWAYPDSFCA (linker 2-5-13 via TATA; not fully specified (C-terminus)) [Compound 32]
Ki [6]: 151 nM
Ki [8]: 232 nM

B2: BCY6032 (peptide)
peptide: AXDCPLVNPLCLHPGWTC
modifications: not fully specified; as BCY6014 (N-terminal (β-Ala)-Sar10; HArg; TATA scaffold on the 3 Cys) + DM1-SS-(Me)-
notes: Bicycle drug conjugate (BDC)
Ki [1]: 11.4 nM
Ki (Mouse EphA2 (Ecto) [2]): 35.9 nM
Ki [3]: 11.4 nM
Ki (Mouse EphA2 (Ecto) [4]): 35.9 nM

ACSPTPACAVQNLCA (linker 2-8-14 via TATA; not fully specified (C-terminus)) [Compound 31]
Ki [7]: 177 nM
Ki [8]: 223 nM

B3: BCY6107 (peptide)
peptide: AXDCPLVNPLCLHPGWTC
modifications: not fully specified; as BCY6014 (N-terminal (β-Ala)-Sar10; HArg; TATA scaffold on the 3 Cys) + MMAE-Glu-Pro-Cit-Gly-hPhe-Tyr-Leu-
notes: Bicycle drug conjugate (BDC)
Ki [9]: 19.2 nM

— US20240000957A1 (published 2024)
